Test results reported in patent US20190055314A1 (ADAGENE, published 2019).
Where a chain is given by its changes, count along the chain named. Each block holds one binder with its values, some of them ahead of it.

What was measured:
[1] = target: T1, human CD137-His6 (Sino Biological #10041-H08H) (human, UniProt Q07011 24-186); assay: SPR Biacore, IgG
T1 construct: Bought; also called human CD137 protein; not shown: His6 tag

Hu_CRD1-CRD2 = target: T2, Hu_CRD1-CRD2 (human, UniProt Q07011 24-86, limits assumed); assay: flow cytometry, yeast display [Cont.]
T2 construct: also called two CRD units (CRD1-CRD2) of human CD137

Hu_CRD3 = target: T3, Hu_CRD3 (human, limits assumed); assay: flow cytometry, yeast display [Cont.]
T3 construct: also called human CD137 CRD3
T3 chain: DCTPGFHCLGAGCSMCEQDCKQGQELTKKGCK

[2] = target: T4, full-length monkey CD137 on the cell surface (cynomolgus monkey, UniProt Q07011 24-179 (human entry)); assay: flow cytometry, PMA/ionomycin-activated monkey T cells, antibody 100 nM
T4 chain: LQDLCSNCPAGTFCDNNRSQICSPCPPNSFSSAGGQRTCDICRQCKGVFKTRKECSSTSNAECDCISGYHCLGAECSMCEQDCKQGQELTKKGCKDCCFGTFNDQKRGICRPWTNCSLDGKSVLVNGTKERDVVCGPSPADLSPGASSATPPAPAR

[3] = target: T5, full-length human CD137 on the cell surface (human, UniProt Q07011 18-255); assay: flow cytometry, yeast display
T5 construct: also called Human WT

[4] = target: T6, full-length mouse CD137 on the cell surface (mouse, UniProt P20334 24-178); assay: flow cytometry, yeast display
T6 sequence: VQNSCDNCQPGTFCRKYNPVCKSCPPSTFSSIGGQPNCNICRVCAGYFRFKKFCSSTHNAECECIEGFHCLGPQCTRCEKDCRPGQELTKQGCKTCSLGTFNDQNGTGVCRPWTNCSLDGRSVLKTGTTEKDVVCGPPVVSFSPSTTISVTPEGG

Hu_CRD2 = target: T7, Hu_CRD2 (human, UniProt Q07011 46-86, limits assumed); assay: flow cytometry, yeast display
T7 construct: also called human CD137 CRD2
T7 chain: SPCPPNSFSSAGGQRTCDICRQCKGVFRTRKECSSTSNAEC

[5] = target: T6, full-length mouse CD137 on the cell …; assay: flow cytometry, HEK293F cells expressing CD137 [Cont.]
[6] = target: T5, full-length human CD137 on the cell …; assay: flow cytometry, HEK293F cells expressing CD137 or mutant [Cont.]
[7] = target: T6, full-length mouse CD137 on the cell …; assay: as above
[8] = target: T4, full-length monkey CD137 on the cell …; assay: flow cytometry, HEK293F
[9] = target: T5, full-length human CD137 on the cell …; assay: flow cytometry, HEK293F
[10] = target: T4, full-length monkey CD137 on the cell …; assay: cell-based or functional assay
[11] = target: T5, full-length human CD137 on the cell …; assay: cell-based or functional assay
[12] = target: T8, mouse CD137 protein (Biacore) (mouse, UniProt P20334 24-178, limits assumed); assay: SPR Biacore
T8 construct: Construct used as SPR analyte not described
T8 sequence: T6 sequence

[13] = target: T9, GITR overexpressed on HEK293F cells (UniProt Q9Y5U5 26-241, limits assumed); assay: flow cytometry, HEK293F cells expressing the receptor
T9 construct: whole, on cells
T9 sequence (looked up): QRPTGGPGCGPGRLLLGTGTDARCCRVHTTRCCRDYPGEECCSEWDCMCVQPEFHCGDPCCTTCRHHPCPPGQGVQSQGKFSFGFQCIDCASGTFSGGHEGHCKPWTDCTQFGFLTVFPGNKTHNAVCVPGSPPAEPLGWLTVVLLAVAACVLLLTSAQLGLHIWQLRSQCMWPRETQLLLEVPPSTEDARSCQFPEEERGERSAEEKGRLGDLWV

[14] = target: T10, OX40 overexpressed on HEK293F cells (UniProt P43489 29-277, limits assumed); assay: as above
T10 construct: whole, on cells
T10 sequence (looked up): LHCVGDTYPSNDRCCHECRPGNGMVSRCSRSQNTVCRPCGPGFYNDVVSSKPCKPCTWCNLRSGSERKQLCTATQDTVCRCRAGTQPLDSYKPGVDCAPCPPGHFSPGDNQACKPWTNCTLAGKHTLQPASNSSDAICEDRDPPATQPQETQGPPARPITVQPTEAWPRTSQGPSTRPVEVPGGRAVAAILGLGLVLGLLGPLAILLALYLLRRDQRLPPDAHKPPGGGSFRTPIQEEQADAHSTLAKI

[15] = target: T11, CD27 overexpressed on HEK293F cells (UniProt P26842 20-260, limits assumed); assay: as above
T11 construct: whole, on cells
T11 sequence (looked up): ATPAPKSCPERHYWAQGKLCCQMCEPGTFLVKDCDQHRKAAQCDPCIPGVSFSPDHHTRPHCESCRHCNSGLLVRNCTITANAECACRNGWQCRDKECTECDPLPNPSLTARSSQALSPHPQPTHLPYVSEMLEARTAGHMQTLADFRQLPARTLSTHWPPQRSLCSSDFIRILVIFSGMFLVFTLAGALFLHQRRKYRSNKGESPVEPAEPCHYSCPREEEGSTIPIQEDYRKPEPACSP

[16] = target: T12, CD40 overexpressed on HEK293F cells (UniProt P25942 21-277, limits assumed); assay: as above
T12 construct: whole, on cells
T12 sequence (P25942 21-277 limits assumed): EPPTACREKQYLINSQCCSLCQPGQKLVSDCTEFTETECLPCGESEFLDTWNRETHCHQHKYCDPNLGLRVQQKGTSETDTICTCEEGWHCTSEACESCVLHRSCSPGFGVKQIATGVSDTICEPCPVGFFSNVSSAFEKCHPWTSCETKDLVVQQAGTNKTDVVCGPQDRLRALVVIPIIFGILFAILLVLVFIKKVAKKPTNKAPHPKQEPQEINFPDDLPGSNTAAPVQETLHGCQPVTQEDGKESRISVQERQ

- Kd [1]: 38 nM
- koff [1]: 0.0063 s⁻¹
- kon [1]: 160000 M⁻¹ s⁻¹
- % in upper right quadrant (Hu_CRD1-CRD2): 0.31%
- Mean (Hu_CRD1-CRD2): 12000
- % in upper right quadrant (Hu_CRD3): 0.25%
- Mean (Hu_CRD3): 6200
- % of cells positive for antibody binding [2]: 8.1%
- % in upper right quadrant [3]: 25.9%
- Mean [3]: 58600
- % in upper right quadrant [4]: 0.44%
- Mean [4]: 9890
- % in upper right quadrant (Hu_CRD2): 0.2%
- Mean (Hu_CRD2): 6280
- % in upper right quadrant [6]: 34.7%
- % in upper right quadrant [7]: 0.041%
- Kd [8]: 2.6 nM
- Kd [9]: 5 nM
- NFκB luciferase reporter, 293T cells with monkey CD137: EC50 (read off the curve) [10]: ~1 nM
- NFκB luciferase reporter, 293T cells with human CD137: EC50 (read off the curve) [11]: ~10 nM
- binding result [12]: no binding
B1: AG10059 (antibody, human IgG4 S228P, kappa, V domains shown)
VH: EVQLVESGGGLVQPGGSLRLSCAASGYSITSGHYWAWIRQAPGKGLEWVSSISGYGSTTYYADSVKGRFTISRDNSKNTLYLQLNSLRAEDTAVYYCARGGSDAVLGDWFAYWGQGTLVTVSS
VL: DIQLTQSPSSLSASVGDRVTITCRASQGIGSFLAWYQQKPGKAPKLLIYDASNLETGVPSRFSGSGSGTDFTLTISSLQPEDFATYYCQQGYYLWTFGQGTKVEIKR
- binding result [5]: no binding (tested: 100 nM (text paragraph 220))

- Kd [1]: 5.9 nM
- koff [1]: 0.0024 s⁻¹
- kon [1]: 410000 M⁻¹ s⁻¹
- % in upper right quadrant (Hu_CRD1-CRD2): 0.18%
- Mean (Hu_CRD1-CRD2): 3680
- % in upper right quadrant (Hu_CRD3): 0.15%
- Mean (Hu_CRD3): 10400
- % of cells positive for antibody binding [2]: 9.8%
- % in upper right quadrant [3]: 30.7%
- Mean [3]: 64700
- % in upper right quadrant [4]: 41.1%
- Mean [4]: 12600
- % in upper right quadrant (Hu_CRD2): 0.24%
- Mean (Hu_CRD2): 13200
- % in upper right quadrant [6]: 27.3%
- % in upper right quadrant [7]: 31.1%
- Kd [8]: 2 nM
- Kd [9]: 1.8 nM
- NFκB luciferase reporter, 293T cells with monkey CD137: EC50 (read off the curve) [10]: ~1 nM
- NFκB luciferase reporter, 293T cells with human CD137: EC50 (read off the curve) [11]: ~5 nM
B2: AG10058 (antibody, human IgG4 S228P, kappa, V domains shown)
VH: EVQLVESGGGLVQPGGSLRLSCAASGFSLSTSGVGVGWIRQAPGKGLEWLALIDWDDDKYYSPSLKSRLTISRDNSKNTLYLQLNSLRAEDTAVYYCARGGSDTVLGDWFAYWGQGTLVTVSS
VL: B1 VL with G28S, I29V, G30S, S31P, F32Y, N53S, T56S, Y93S
- binding result [13]: no binding (tested: 100 nM (text paragraph 226))
- binding result [14]: no binding (tested: 100 nM (text paragraph 226))
- binding result [15]: no binding (tested: 100 nM (text paragraph 226))
- binding result [16]: no binding (tested: 100 nM (text paragraph 226))
